First the molecules themselves.
T1: Osh6(H157A/H158A) (S. cerevisiae, UniProt Q02201 1-448, H157A | H158A)
T1 construct: also called Osh6(HH/AA)
T1 sequence (looked up): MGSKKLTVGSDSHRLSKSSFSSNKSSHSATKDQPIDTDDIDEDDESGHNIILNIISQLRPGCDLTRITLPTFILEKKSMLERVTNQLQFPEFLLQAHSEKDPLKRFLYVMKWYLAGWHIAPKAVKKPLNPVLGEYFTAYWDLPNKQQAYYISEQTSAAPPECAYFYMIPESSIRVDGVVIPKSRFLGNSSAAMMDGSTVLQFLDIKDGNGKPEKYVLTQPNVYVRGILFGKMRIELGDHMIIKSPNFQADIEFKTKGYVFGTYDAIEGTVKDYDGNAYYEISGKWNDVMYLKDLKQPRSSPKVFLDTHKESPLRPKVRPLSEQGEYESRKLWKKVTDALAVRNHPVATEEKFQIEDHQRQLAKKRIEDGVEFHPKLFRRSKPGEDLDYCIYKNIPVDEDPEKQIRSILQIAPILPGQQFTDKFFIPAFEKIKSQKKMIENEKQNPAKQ

B1: Osh6 (natural protein, S. cerevisiae, UniProt Q02201 1-448, looked up)
chain: T1 sequence (looked up) with A157H, A158H
B2: Osh6(HH/AA)-3M (natural protein, S. cerevisiae, UniProt Q02201 1-448, looked up)
chain: T1 sequence (looked up) with E170A, Q417A, T420I
B3: GST-Ist2[590–946] (domain or fragment, S. cerevisiae, UniProt P38250 590-946, looked up)
chain: SSHDDVANGIVPKHVVNVQNPPKQEVFEKIPSPEFNSNNEKELVQRKGSANEKLHQELGEKQPASSANGYEAHAATHANNDPSSLSSASSPSLSSSSSSSKTGVVKAVDNDTAGSAGKKPLATESTEKRNSLVKVPTVGSYGVAGATLPETIPTSKNYYLRFDEDGKSIRDAKSSAESSNATNNNTLGTESKLLPDGDAVDALSRKIDQIPKIAVTGGENNENTQAKDDAATKTPLIKDANIKPVVNAAVNDNQSKVSVATEQTKKTEVSTKNGPSRSISTKETKDSARPSNNNTTTTTTTDATQPHHHHHHHRHRDAGVKNVTNNSKTTESSSSSSAAKEKPKHKKGLLHKLKKKL
notes: also called Ist2 IDR; full-length Ist2 IDR; source: E. coli BL21-GOLD(DE3), purified (Glutathione Sepharose 4B, eluted with glutathione); not shown: GST, N-terminal, kept
B4: CIst2[590–946] (domain or fragment, S. cerevisiae)
chain: CSSHDDVANGIVPKHVVNVQNPPKQEVFEKIPSPEFNSNNEKELVQRKGSANEKLHQELGEKQPASSANGYEAHAATHANNDPSSLSSASSPSLSSSSSSSKTGVVKAVDNDTAGSAGKKPLATESTEKRNSLVKVPTVGSYGVAGATLPETIPTSKNYYLRFDEDGKSIRDAKSSAESSNATNNNTLGTESKLLPDGDAVDALSRKIDQIPKIAVTGGENNENTQAKDDAATKTPLIKDANIKPVVNAAVNDNQSKVSVATEQTKKTEVSTKNGPSRSISTKETKDSARPSNNNTTTTTTTDATQPHHHHHHHRHRDAGVKNVTNNSKTTESSSSSSAAKEKPKHKKGLLHKLKKKL
modifications: N-terminal cysteine covalently attached to MPB-PE of liposomes (in the experiments with MPB-PE–containing liposomes)
notes: extra N-terminal cysteine; With PM-like liposomes it is held by its C-terminal polybasic motif, not covalently; also called Ist2 IDR with an extra N-terminal cysteine; source: E. coli BL21-GOLD(DE3), purified (Glutathione Sepharose 4B, thrombin cleavage, Sephacryl S-200 HR); not shown: GST, N-terminal, cleaved

Assay [1] concerns the target B4.
In assay [2] the target is B4. In words: cell-based or functional assay.
The target of another assay is T1, Osh6(H157A/H158A). In words: pull-down; GST constructs (2.5 μM) immobilised on Glutathione Sepharose 4B beads; Osh6, its mutants, Osh4, ORD^Osh3 or ORD^ORP8 added at 2.5 μM; 50 mM tris pH 7.4, 120 mM NaCl, 1 mM MgCl2, 1% TX-100, 1 mM DTT, 10% glycerol; 25°C, 1 hour; bound fraction by SDS-PAGE. Conditions: both partners purified.
In the assay “Osh6” the target is B1. In words: liposome flotation assay; Osh6 (0.75 μM) with or without an equivalent amount of CIst2[590–946] and PM-like liposomes POPC/POPS/PI(4,5)P2/NBD-PE (65:30:5:0.1); sucrose gradient, top fraction by SDS-PAGE. Conditions: both partners purified.

Changes are numbered by the printed parent chain.

“ORD^ORP8 (H514A/H515A) (domain or fragment)”: the Ist2-dependent (ER→PM)/(ER→O) NBD-PS transfer rate ratio R (Ist2), three liposome populations, LER and LPM connected by CIst2[590–946], FRET, 30°C with CIst2[590–946] [1] turned out to be 1. For the molecule B1, the “Ist2-dependent (ER→PM)/(ER→O) NBD-PS transfer rate ratio R_(Ist2), three liposome populations, LER and LPM connected by CIst2[590–946], FRET, 30°C” value with CIst2[590–946] [2] amounted to 7.6. As for B2, in the assay with CIst2[590–946] [2], the “Ist2-dependent (ER→PM)/(ER→O) NBD-PS transfer rate ratio R_(Ist2), three liposome populations, LER and LPM connected by CIst2[590–946], FRET” value is about 1. B3: in the assay with Osh6(H157A/H158A), the binding result is “binds”. B4: the binding result with Osh6 is “binds”.

(Values after paper PMC12617493 (Science Advances, 2025).)
